Common to all, as to assay: purified protein, by the assay type
Substrate in data set [1]: N[C@H](Cc1ccc(O)cc1)C(=O)O
As to conditions: other: 10 mM MgATP, saturating tRNA^Tyr, 25° C., L-Tyr with cyclodityrosine synthase, D-Tyr with D-tyrosyl-tRNA deacylase, pH 7.78.

Substrate in data set [2]: N[C@@H](Cc1ccc(O)cc1)C(=O)O
As to conditions: other: 10 mM MgATP, saturating tRNA^Tyr, 25° C., L-Tyr with cyclodityrosine synthase, D-Tyr with D-tyrosyl-tRNA deacylase, pH 7.78.

Substrate in data set [3]: Nc1ncnc2c1ncn2[C@@H]1O[C@H](COP(=O)(O)O)[C@@H](O)[C@H]1O
Format: biochemical, Saccharomyces cerevisiae. As to conditions: other: pH 7.2, 2 mM ATP, 3 μM IMP dehydrogenase, 25° C., standard error in parenthesis.

B1: G. stearothermophilus tyrosyl-tRNA synthetase (Geobacillus stearothermophilus) (protein)
chain: MDLLAELQWRGLVNQTTDEDGLRKLLNEERVTLYCGFDPTADSLHIGHLATILTMRRFQQAGHRPIALVGGATGLIGDPSGKKSERTLNAKETVEAWSARIKEQLGRFLDFEADGNPAKIKNNYDWIGPLDVITFLRDVGKHFSVNYMMAKESVQSRIETGISFTEFSYMMLQAYDFLRLYETEGCRLQIGGSDQWGNITAGLELIRKTKGEARAFGLTIPLVTKADGTKFGKTESGTIWLDKEKTSPYEFYQFWINTDDRDVIRYLKYFTFLSKEEIEALEQELREAPEKRAAQKTLAEEVTKLVHGEEALRQAIRISEALFSGDIANLTAAEIEQGFKDVPSFVHEGGDVPLVELLVSAGISPSKRQAREDIQNGAIYVNGERLQDVGAILTAEHRLEGRFTVIRRGKKKYYLIRYA
Take B1: the Km in data set [1] is reported as 23 (±6) μM; in data set [2] it was 24 (±3) μM.

B2: AMP deaminase (Saccharomyces cerevisiae S288C) (protein)
chain: MDNQATQRLNDLSLEPAPSHDEQDGSGLVIDIDQRKIGDEQAGVVVDDETPPLEQQDSHESLAADSRNANFSYHENQQLLENGTKQLALDEHDSHSAILEQPSHSTNCSSSNIAAMNKGHDSADHASQNSGGKPRTLSASAQHILPETLKSFAGAPVVNKQVRTSASYKMGMLADDASQQFLDDPSSELIDLYSKVAECRNLRAKYQTISVQNDDQNPKNKPGWVVYPPPPKPSYNSDTKTVVPVTNKPDAEVFDFTKCEIPGEDPDWEFTLNDDDSYVVHRSGKTDELIAQIPTLRDYYLDLEKMISISSDGPAKSFAYRRLQYLEARWNLYYLLNEYQETSVSKRNPHRDFYNVRKVDTHVHHSACMNQKHLLRFIKHKLRHSKDEKVIFRDGKLLTLDEVFRSLHLTGYDLSIDTLDMHAHKDTFHRFDKFNLKYNPIGESRLREIFLKTNNYIKGTYLADITKQVIFDLENSKYQNCEYRISVYGRSLDEWDKLASWVIDNKVISHNVRWLVQIPRLYDIYKKTGIVQSFQDICKNLFQPLFEVTKNPQSHPKLHVFLQRVIGFDSVDDESKVDRRFHRKYPKPSLWEAPQNPPYSYYLYYLYSNVASLNQWRAKRGFNTLVLRPHCGEAGDPEHLVSAYLLAHGISHGILLRKVPFVQYLYYLDQVGIAMSPLSNNALFLTYDKNPFPRYFKRGLNVSLSTDDPLQFSYTREPLIEEYSVAAQIYKLSNVDMCELARNSVLQSGWEAQIKKHWIGKDFDKSGVEGNDVVRTNVPDIRINYRYDTLSTELELVNHFANFKRTIEEK
Consider B2, for which, in data set [3], the Km was 0.4 (±0.1) mM and the kcat is reported as 21 (±4) s^−1.

(Values after patent US9777309B2, “High throughput assay for monitoring AMP production and aminoacyl-tRNA synthetase activity” (Board of Supervisors of Louisiana State University and …, priority 2014, dated 2017).)
